# From FireProtDB (doi:10.1021/bi0015717)
# Several values for one entry are separate records, joined by “and”; a condition that tells them apart may be missing. Equal entries are not always repeated.
# B1: Lysozyme C, P61626 (parent)
# chain: MKALIVLGLVLLSVTVQGKVFERCELARTLKRLGMDGYRGISLANWMCLAKWESGYNTRATNYNAGDRSTDYGIFQINSRYWCNDGKTPGAVNACHLSCSALLQDNIADAVACAKRVVRDPQGIRAWVAWRNRCQNRDVRQYVQGCGV
# Variants of: B1
# Settings: Homo sapiens; pH 2.48; Thermal; DSC; glycine-HCl 0.05 M; reversible: yes; structure 1LZ1; whole UniProt chain shown
Variant,Tm,unfolding enthalpy (calorimetric)
V128M,62.8 °C,109 kcal/mol

# Same assay, conditions: Homo sapiens; pH 2.7; Thermal; DSC; glycine-HCl 0.05 M; reversible: yes; structure 1LZ1; whole UniProt chain shown
Variant,Tm,"change of melting temperature, mutant - wild type (higher = more stable)",heat capacity change of unfolding,unfolding enthalpy (calorimetric)
V128M,66.3 °C and 66.5 °C and 64.9 °C,1.6 °C,1.41 kcal/mol/K,114 kcal/mol and 112 kcal/mol
V20I,68 °C and 68.3 °C and 64.9 °C,3.4 °C,1.58 kcal/mol/K,114 kcal/mol and 108 kcal/mol
V92L,65.3 °C and 65.5 °C and 64.9 °C,0.6 °C,1.27 kcal/mol/K,104 kcal/mol and 103 kcal/mol
V128L,65 °C and 65.1 °C and 64.9 °C,0.2 °C,1.29 kcal/mol/K,108 kcal/mol and 109 kcal/mol
V92M,66.9 °C and 64.9 °C,2 °C,1.58 kcal/mol/K,113 kcal/mol and 109 kcal/mol
V20M,63.9 °C,-1 °C,1.55 kcal/mol/K,113 kcal/mol
V128I,67.3 °C and 67.6 °C and 64.9 °C,2.7 °C,1.65 kcal/mol/K,111 kcal/mol and 107 kcal/mol
V92G,64.9 °C,,,
V128G,66.5 °C and 64.9 °C,1.6 °C,1.82 kcal/mol/K,99.9 kcal/mol
V20G,,-7.5 °C,1.31 kcal/mol/K,107 kcal/mol
V92I,66.6 °C and 64.9 °C,1.7 °C,1.2 kcal/mol/K,88.4 kcal/mol
V92F,64 °C and 64.9 °C,-0.9 °C,1.34 kcal/mol/K,110 kcal/mol
V20F,62.2 °C and 64.9 °C,-2.7 °C,1.63 kcal/mol/K,110 kcal/mol
V128F,64.7 °C and 64.9 °C,-0.2 °C,1.7 kcal/mol/K,101 kcal/mol
V20L,64.5 °C and 64.7 °C and 64.9 °C,-0.2 °C,1.22 kcal/mol/K,109 kcal/mol

# Same assay, conditions: Homo sapiens; pH 3.06; Thermal; DSC; glycine-HCl 0.05 M; reversible: yes; structure 1LZ1; whole UniProt chain shown
Variant,Tm,unfolding enthalpy (calorimetric)
V128M,72.8 °C,123 kcal/mol

# Same assay, conditions: Homo sapiens; pH 2.5; Thermal; DSC; glycine-HCl 0.05 M; reversible: yes; structure 1LZ1; whole UniProt chain shown
Variant,Tm,unfolding enthalpy (calorimetric)
V20I,65.1 °C,108 kcal/mol
V92L,62.4 °C,100 kcal/mol
V128L,61.9 °C,105 kcal/mol
V92M,63.4 °C,107 kcal/mol

# Same assay, conditions: Homo sapiens; pH 2.7; 64.9 °C; Thermal; DSC; glycine-HCl 0.05 M; reversible: yes; structure 1LZ1; whole UniProt chain shown
row,Variant,ddG of mutation (higher = less stable)
1,V20I,-1.1 kcal/mol
2,V92L,-0.19 kcal/mol
3,V128L,-0.07 kcal/mol
4,V92M,-0.65 kcal/mol
5,V20M,0.31 kcal/mol
6,V128I,-0.86 kcal/mol
7,V92G,0.22 kcal/mol
8,V128G,-0.48 kcal/mol
9,V20G,2.29 kcal/mol
10,V92I,-0.45 kcal/mol
11,V92F,0.29 kcal/mol
12,V20F,0.86 kcal/mol
13,V128F,0.05 kcal/mol
14,V20L,0.05 kcal/mol

# Same assay, conditions: Homo sapiens; pH 2.92; Thermal; DSC; glycine-HCl 0.05 M; reversible: yes; structure 1LZ1; whole UniProt chain shown
Variant,Tm,unfolding enthalpy (calorimetric)
V20I,72.2 °C,119 kcal/mol

# Same assay, conditions: Homo sapiens; pH 3.13; Thermal; DSC; glycine-HCl 0.05 M; reversible: yes; structure 1LZ1; whole UniProt chain shown
Variant,Tm,unfolding enthalpy (calorimetric)
V20I,75.5 °C,125 kcal/mol
V128I,74.9 °C,123 kcal/mol

# Same assay, conditions: Homo sapiens; pH 2.83; Thermal; DSC; glycine-HCl 0.05 M; reversible: yes; structure 1LZ1; whole UniProt chain shown
Variant,Tm,unfolding enthalpy (calorimetric)
V92L,67.5 °C,107 kcal/mol
V92M,69.4 °C,117 kcal/mol
V20G,59.5 °C,99.7 kcal/mol

# Same assay, conditions: Homo sapiens; pH 3.05; Thermal; DSC; glycine-HCl 0.05 M; reversible: yes; structure 1LZ1; whole UniProt chain shown
Variant,Tm,unfolding enthalpy (calorimetric)
V92L,71.6 °C,112 kcal/mol
V20L,70.4 °C,116 kcal/mol

# Same assay, conditions: Homo sapiens; pH 3.15; Thermal; DSC; glycine-HCl 0.05 M; reversible: yes; structure 1LZ1; whole UniProt chain shown
Variant,Tm,unfolding enthalpy (calorimetric)
V92L,73.3 °C,114 kcal/mol

# Same assay, conditions: Homo sapiens; pH 2.82; Thermal; DSC; glycine-HCl 0.05 M; reversible: yes; structure 1LZ1; whole UniProt chain shown
Variant,Tm,unfolding enthalpy (calorimetric)
V128L,67 °C,111 kcal/mol

# Same assay, conditions: Homo sapiens; pH 3.03; Thermal; DSC; glycine-HCl 0.05 M; reversible: yes; structure 1LZ1; whole UniProt chain shown
Variant,Tm,unfolding enthalpy (calorimetric)
V128L,70.5 °C,115 kcal/mol

# Same assay, conditions: Homo sapiens; pH 3.25; Thermal; DSC; glycine-HCl 0.05 M; reversible: yes; structure 1LZ1; whole UniProt chain shown
Variant,Tm,unfolding enthalpy (calorimetric)
V128L,74.5 °C,121 kcal/mol

# Same assay, conditions: Homo sapiens; pH 3.1; Thermal; DSC; glycine-HCl 0.05 M; reversible: yes; structure 1LZ1; whole UniProt chain shown
Variant,Tm,unfolding enthalpy (calorimetric)
V92M,73.2 °C,123 kcal/mol
V92F,70.5 °C,117 kcal/mol

# Same assay, conditions: Homo sapiens; pH 3.2; Thermal; DSC; glycine-HCl 0.05 M; reversible: yes; structure 1LZ1; whole UniProt chain shown
Variant,Tm,unfolding enthalpy (calorimetric)
V92M,75 °C,125 kcal/mol

# Same assay, conditions: Homo sapiens; pH 2.52; Thermal; DSC; glycine-HCl 0.05 M; reversible: yes; structure 1LZ1; whole UniProt chain shown
Variant,Tm,unfolding enthalpy (calorimetric)
V20M,60.6 °C,106 kcal/mol

# Same assay, conditions: Homo sapiens; pH 2.73; Thermal; DSC; glycine-HCl 0.05 M; reversible: yes; structure 1LZ1; whole UniProt chain shown
Variant,Tm,unfolding enthalpy (calorimetric)
V20M,64.5 °C,112 kcal/mol

# Same assay, conditions: Homo sapiens; pH 2.94; Thermal; DSC; glycine-HCl 0.05 M; reversible: yes; structure 1LZ1; whole UniProt chain shown
Variant,Tm,unfolding enthalpy (calorimetric)
V20M,68.3 °C,118 kcal/mol
V128G,70.6 °C,110 kcal/mol

# Same assay, conditions: Homo sapiens; pH 3.09; Thermal; DSC; glycine-HCl 0.05 M; reversible: yes; structure 1LZ1; whole UniProt chain shown
Variant,Tm,unfolding enthalpy (calorimetric)
V20M,70.6 °C,122 kcal/mol
V92G,70.8 °C,124 kcal/mol
V20F,68.6 °C,116 kcal/mol

# Same assay, conditions: Homo sapiens; pH 3.31; Thermal; DSC; glycine-HCl 0.05 M; reversible: yes; structure 1LZ1; whole UniProt chain shown
Variant,Tm,unfolding enthalpy (calorimetric)
V20M,74.2 °C,127 kcal/mol

# Same assay, conditions: Homo sapiens; pH 2.53; Thermal; DSC; glycine-HCl 0.05 M; reversible: yes; structure 1LZ1; whole UniProt chain shown
Variant,Tm,unfolding enthalpy (calorimetric)
V128I,64.9 °C,107 kcal/mol
V92G,61.3 °C,108 kcal/mol

# Same assay, conditions: Homo sapiens; pH 2.9; Thermal; DSC; glycine-HCl 0.05 M; reversible: yes; structure 1LZ1; whole UniProt chain shown
Variant,Tm,unfolding enthalpy (calorimetric)
V128I,70.9 °C,117 kcal/mol

# Same assay, conditions: Homo sapiens; pH 3.23; Thermal; DSC; glycine-HCl 0.05 M; reversible: yes; structure 1LZ1; whole UniProt chain shown
Variant,Tm,unfolding enthalpy (calorimetric)
V128I,76.8 °C,127 kcal/mol
V92F,72.4 °C,120 kcal/mol

# Same assay, conditions: Homo sapiens; pH 2.95; Thermal; DSC; glycine-HCl 0.05 M; reversible: yes; structure 1LZ1; whole UniProt chain shown
Variant,Tm,unfolding enthalpy (calorimetric)
V92G,68.7 °C,121 kcal/mol

# Same assay, conditions: Homo sapiens; pH 3.3; Thermal; DSC; glycine-HCl 0.05 M; reversible: yes; structure 1LZ1; whole UniProt chain shown
Variant,Tm,unfolding enthalpy (calorimetric)
V92G,74 °C,129 kcal/mol
V128G,76.6 °C,122 kcal/mol

# Same assay, conditions: Homo sapiens; pH 2.6; Thermal; DSC; glycine-HCl 0.05 M; reversible: yes; structure 1LZ1; whole UniProt chain shown
Variant,Tm,unfolding enthalpy (calorimetric)
V128G,64.6 °C,99.9 kcal/mol

# Same assay, conditions: Homo sapiens; pH 3.11; Thermal; DSC; glycine-HCl 0.05 M; reversible: yes; structure 1LZ1; whole UniProt chain shown
Variant,Tm,unfolding enthalpy (calorimetric)
V128G,73.4 °C,115 kcal/mol

# Same assay, conditions: Homo sapiens; pH 2.65; Thermal; DSC; glycine-HCl 0.05 M; reversible: yes; structure 1LZ1; whole UniProt chain shown
Variant,Tm,unfolding enthalpy (calorimetric)
V20G,56.6 °C,95.6 kcal/mol

# Same assay, conditions: Homo sapiens; pH 3.08; Thermal; DSC; glycine-HCl 0.05 M; reversible: yes; structure 1LZ1; whole UniProt chain shown
Variant,Tm,unfolding enthalpy (calorimetric)
V20G,63.8 °C,105 kcal/mol

# Same assay, conditions: Homo sapiens; pH 3.19; Thermal; DSC; glycine-HCl 0.05 M; reversible: yes; structure 1LZ1; whole UniProt chain shown
Variant,Tm,unfolding enthalpy (calorimetric)
V20G,65.7 °C,108 kcal/mol

# Same assay, conditions: Homo sapiens; pH 3.4; Thermal; DSC; glycine-HCl 0.05 M; reversible: yes; structure 1LZ1; whole UniProt chain shown
Variant,Tm,unfolding enthalpy (calorimetric)
V20G,69 °C,112 kcal/mol
V92F,75.6 °C,124 kcal/mol

# Same assay, conditions: Homo sapiens; pH 2.67; Thermal; DSC; glycine-HCl 0.05 M; reversible: yes; structure 1LZ1; whole UniProt chain shown
Variant,Tm,unfolding enthalpy (calorimetric)
V92I,66.1 °C,89.9 kcal/mol

# Same assay, conditions: Homo sapiens; pH 2.8; Thermal; DSC; glycine-HCl 0.05 M; reversible: yes; structure 1LZ1; whole UniProt chain shown
Variant,Tm,unfolding enthalpy (calorimetric)
V92I,68.3 °C,92.5 kcal/mol
V128F,66.3 °C,103 kcal/mol

# Same assay, conditions: Homo sapiens; pH 3; Thermal; DSC; glycine-HCl 0.05 M; reversible: yes; structure 1LZ1; whole UniProt chain shown
Variant,Tm,unfolding enthalpy (calorimetric)
V92I,71.7 °C,96.6 kcal/mol

# Same assay, conditions: Homo sapiens; pH 2.68; Thermal; DSC; glycine-HCl 0.05 M; reversible: yes; structure 1LZ1; whole UniProt chain shown
Variant,Tm,unfolding enthalpy (calorimetric)
V92F,63.6 °C,108 kcal/mol
V20F,62 °C,106 kcal/mol

# Same assay, conditions: Homo sapiens; pH 2.84; Thermal; DSC; glycine-HCl 0.05 M; reversible: yes; structure 1LZ1; whole UniProt chain shown
Variant,Tm,unfolding enthalpy (calorimetric)
V92F,66.3 °C,112 kcal/mol

# Same assay, conditions: Homo sapiens; pH 2.87; Thermal; DSC; glycine-HCl 0.05 M; reversible: yes; structure 1LZ1; whole UniProt chain shown
Variant,Tm,unfolding enthalpy (calorimetric)
V20F,65 °C,110 kcal/mol

# Same assay, conditions: Homo sapiens; pH 3.22; Thermal; DSC; glycine-HCl 0.05 M; reversible: yes; structure 1LZ1; whole UniProt chain shown
Variant,Tm,unfolding enthalpy (calorimetric)
V20F,71.2 °C,121 kcal/mol

# Same assay, conditions: Homo sapiens; pH 2.72; Thermal; DSC; glycine-HCl 0.05 M; reversible: yes; structure 1LZ1; whole UniProt chain shown
Variant,Tm,unfolding enthalpy (calorimetric)
V128F,65.1 °C,101 kcal/mol

# Same assay, conditions: Homo sapiens; pH 3.04; Thermal; DSC; glycine-HCl 0.05 M; reversible: yes; structure 1LZ1; whole UniProt chain shown
Variant,Tm,unfolding enthalpy (calorimetric)
V128F,70.5 °C,110 kcal/mol
